Assays:
HeLa Kyoto [1] = assay: solubility in G1/S (NP-40 vs SDS abundance) (log2 ratio); higher = more soluble; details: cell cycle stage: G1/S
HeLa Kyoto [2] = assay: melting temperature (median over replicates), in situ; higher = more thermally stable
HeLa Kyoto [3] = assay: solubility change mitosis vs G1/S (difference of NP-40 vs SDS log2 ratios) (log2 ratio difference); higher = more soluble in mitosis
HeLa Kyoto [4] = assay: thermal stability score vs G1/S (z-score of summed log2 fold changes over temperatures); higher = more thermally stable than in G1/S
[5] = cell cycle stage: early G1 (4.5 h after nocodazole release)
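For melting temperature (median over replicates), in situ in this document: HeLa Kyoto cells synchronized by double thymidine or nocodazole block, proteins quantified by TMT10plex mass spectrometry, three independent biological replicates.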
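For solubility change mitosis vs G1/S (difference of NP-40 vs SDS log2 ratios) in this document: synchronized HeLa Kyoto cells (double thymidine block for G1/S, nocodazole release for mitosis), protein amounts in NP-40 versus SDS lysates quantified by mass spectrometry, three biological replicates.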
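For solubility in G1/S (NP-40 vs SDS abundance) in this document: HeLa Kyoto cells arrested at G1/S by double thymidine block, proteins quantified by TMT10plex mass spectrometry in mild NP-40 versus SDS extracts, three biological replicates.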
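For thermal stability score vs G1/S (z-score of summed log2 fold changes over temperatures) in this document: synchronized HeLa Kyoto cells, proteins quantified by TMT10plex mass spectrometry, three biological replicates, mitosis taken 0.5 h after nocodazole release, G1/S directly after double thymidine block.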

Sequence | solubility in G1/S (log2) (HeLa Kyoto [1]) | melting temperature (HeLa Kyoto [2]; cell cycle stage: G1/S) [°C] | melting temperature (HeLa Kyoto [2]; cell cycle stage: mitosis) [°C] | solubility change mitosis (log2) (HeLa Kyoto [3]) | thermal stability score (HeLa Kyoto [4]; [5]) | thermal stability score (HeLa Kyoto [4]; cell cycle stage: mitosis)
MNVNQSVPPVPPFGQPQPIYPGYHQSSYGGQSGSTAPAIPYGAYNGPVPGYQQTPPQGMSRAPPSSGAPPASTAQAPCGQAAYGQFGQGDVQNGPSSTVQMQRLPGSQPFGSPLAPVGNQPPVLQPYGPPPTSAQVATQLSGMQISGAVAPAPPSSGLGFGPPTSLASASGSFPNSGLYGSYPQGQAPPLSQAQGHPGIQTPQRSAPSQASSFTPPASGGPRLPSMTGPLLPGQSFGGPSVSQPNHVSSPPQALPPGTQMTGPLGPLPPMHSPQQPGYQPQQNGSFGPARGPQSNYGGPYPAAPTFGSQPGPPQPLPPKRLDPDAIPSPIQVIEDDRNNRGTEPFVTGVRGQVPPLVTTNFLVKDQGNASPRYIRCTSYNIPCTSDMAKQAQVPLAAVIKPLARLPPEEASPYVVDHGESGPLRCNRCKAYMCPFMQFIEGGRRFQCCFCSCINDVPPQYFQHLDHTGKRVDAYDRPELSLGSYEFLATVDYCKNNKFPSPPAFIFMIDVSYNAIRTGLVRLLCEELKSLLDFLPREGGAEESAIRVGFVTYNKVLHFYNVKSSLAQPQMMVVSDVADMFVPLLDGFLVNVNESRAVITSLLDQIPEMFADTRETETVFVPVIQAGMEALKAAECAGKLFLFHTSLPIAEAPGKLKNRDDRKLINTDKEKTLFQPQTGAYQTLAKECVAQGCCVDLFLFPNQYVDVATLSVVPQLTGGSVYKYASFQVENDQERFLSDLRRDVQKVVGFDAVMRVRTSTGIRAVDFFGAFYMSNTTDVELAGLDGDKTVTVEFKHDDRLNEESGALLQCALLYTSCAGQRRLRIHNLALNCCTQLADLYRNCETDTLINYMAKFAYRGVLNSPVKAVRDTLITQCAQILACYRKNCASPSSAGQLILPECMKLLPVYLNCVLKSDVLQPGAEVTTDDRAYVRQLVTSMDVTETNVFFYPRLLPLTKSPVESTTEPPAVRASEERLSNGDIYLLENGLNLFLWVGASVQQGVVQSLFSVSSFSQITSGLSVLPVLDNPLSKKVRGLIDSLRAQRSRYMKLTVVKQEDKMEMLFKHFLVEDKSLSGGASYVDFLCHMHKEIRQLLS [SEC24C] | 0.0263 | 50.6 | 50.3 | -0.121 | 1.19 | 1.53
MLLNGDCPESLKKEAAAAEPPRENGLDEAGPGDETTGQEVIVIQDTGFSVKILAPGIEPFSLQVSPQEMVQEIHQVLMDREDTCHRTCFSLHLDGNVLDHFSELRSVEGLQEGSVLRVVEEPYTVREARIHVRHVRDLLKSLDPSDAFNGVDCNSLSFLSVFTDGDLGDSGKRKKGLEMDPIDCTPPEYILPGSRERPLCPLQPQNRDWKPLQCLKVLTMSGWNPPPGNRKMHGDLMYLFVITAEDRQVSITASTRGFYLNQSTAYHFNPKPASPRFLSHSLVELLNQISPTFKKNFAVLQKKRVQRHPFERIATPFQVYSWTAPQAEHAMDCVRAEDAYTSRLGYEEHIPGQTRDWNEELQTTRELPRKNLPERLLRERAIFKVHSDFTAAATRGAMAVIDGNVMAINPSEETKMQMFIWNNIFFSLGFDVRDHYKDFGGDVAAYVAPTNDLNGVRTYNAVDVEGLYTLGTVVVDYRGYRVTAQSIIPGILERDQEQSVIYGSIDFGKTVVSHPRYLELLERTSRPLKILRHQVLNDRDEEVELCSSVECKGIIGNDGRHYILDLLRTFPPDLNFLPVPGEELPEECARAGFPRAHRHKLCCLRQELVDAFVEHRYLLFMKLAALQLMQQNASQLETPSSLENGGPSSLESKSEDPPGQEAGSEEEGSSASGLAKVKELAETIAADDGTDPRSREVIRNACKAVGSISSTAFDIRFNPDIFSPGVRFPESCQDEVRDQKQLLKDAAAFLLSCQIPGLVKDCMEHAVLPVDGATLAEVMRQRGINMRYLGKVLELVLRSPARHQLDHVFKIGIGELITRSAKHIFKTYLQGVELSGLSAAISHFLNCFLSSYPNPVAHLPADELVSKKRNKRRKNRPPGAADNTAWAVMTPQELWKNICQEAKNYFDFDLECETVDQAVETYGLQKITLLREISLKTGIQVLLKEYSFDSRHKPAFTEEDVLNIFPVVKHVNPKASDAFHFFQSGQAKVQQGFLKEGCELINEALNLFNNVYGAMHVETCACLRLLARLHYIMGDYAEALSNQQKAVLMSERVMGTEHPNTIQEYMHLALYCFASSQLSTALSLLYRARYLMLLVFGEDHPEMALLDNNIGLVLHGVMEYDLSLRFLENALAVSTKYHGPKALKVALSHHLVARVYESKAEFRSALQHEKEGYTIYKTQLGEDHEKTKESSEYLKCLTQQAVALQRTMNEIYRNGSSANIPPLKFTAPSMASVLEQLNVINGILFIPLSQKDLENLKAEVARRHQLQEASRNRDRAEEPMATEPAPAGAPGDLGSQPPAAKDPSPSVQG [CLUH] | -0.0434 | 51.1 | 50.1 | -0.119 | 0.526 | -0.315
MVSKALLRLVSAVNRRRMKLLLGIALLAYVASVWGNFVNMRSIQENGELKIESKIEEMVEPLREKIRDLEKSFTQKYPPVKFLSEKDRKRILITGGAGFVGSHLTDKLMMDGHEVTVVDNFFTGRKRNVEHWIGHENFELINHDVVEPLYIEVDQIYHLASPASPPNYMYNPIKTLKTNTIGTLNMLGLAKRVGARLLLASTSEVYGDPEVHPQSEDYWGHVNPIGPRACYDEGKRVAETMCYAYMKQEGVEVRVARIFNTFGPRMHMNDGRVVSNFILQALQGEPLTVYGSGSQTRAFQYVSDLVNGLVALMNSNVSSPVNLGNPEEHTILEFAQLIKNLVGSGSEIQFLSEAQDDPQKRKPDIKKAKLMLGWEPVVPLEEGLNKAIHYFRKELEYQANNQYIPKPKPARIKKGRTRHS [UXS1] | 0.264 | 54.6 | 54.7 | -0.193 | 0.535 | -0.237
MSQVKSSYSYDAPSDFINFSSLDDEGDTQNIDSWFEEKANLENKLLGKNGTGGLFQGKTPLRKANLQQAIVTPLKPVDNTYYKEAEKENLVEQSIPSNACSSLEVEAAISRKTPAQPQRRSLRLSAQKDLEQKEKHHVKMKAKRCATPVIIDEILPSKKMKVSNNKKKPEEEGSAHQDTAEKNASSPEKAKGRHTVPCMPPAKQKFLKSTEEQELEKSMKMQQEVVEMRKKNEEFKKLALAGIGQPVKKSVSQVTKSVDFHFRTDERIKQHPKNQEEYKEVNFTSELRKHPSSPARVTKGCTIVKPFNLSQGKKRTFDETVSTYVPLAQQVEDFHKRTPNRYHLRSKKDDINLLPSKSSVTKICRDPQTPVLQTKHRARAVTCKSTAELEAEELEKLQQYKFKARELDPRILEGGPILPKKPPVKPPTEPIGFDLEIEKRIQERESKKKTEDEHFEFHSRPCPTKILEDVVGVPEKKVLPITVPKSPAFALKNRIRMPTKEDEEEDEPVVIKAQPVPHYGVPFKPQIPEARTVEICPFSFDSRDKERQLQKEKKIKELQKGEVPKFKALPLPHFDTINLPEKKVKNVTQIEPFCLETDRRGALKAQTWKHQLEEELRQQKEAACFKARPNTVISQEPFVPKKEKKSVAEGLSGSLVQEPFQLATEKRAKERQELEKRMAEVEAQKAQQLEEARLQEEEQKKEELARLRRELVHKANPIRKYQGLEIKSSDQPLTVPVSPKFSTRFHC [TPX2] | -0.167 | 53.8 | 53.1 | 0.425 | -0.935 | -2.05

— the supplement of paper PMC5998384
